# Reference: the supplement of paper PMC7125110
# ± gives the standard error. This sample holds only a part of the variants without activity.
# B1: glmS ribozyme (parent)
# chain: AUAAAAGCGCCAGAACUACAGAAAUGUAGUUGACGAGGAGGAGGUUUAUCGAAUUUUCGGCGGAUGCCUCCAAA
# Variants of: B1
# Assay: self-cleavage kobs at 640 uM GlcN6P; higher = faster cleavage; RNA array
# Settings: with glucosamine-6-phosphate
# Outline: (§1)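 Using a hybridised Cy3 probe at 37 °C, barcoded ribozyme variants transcribed in situ by E. coli RNA polymerase on sequenced MiSeq chips were monitored across tiles imaged over ~14 h. The flow contained glucosamine-6-phosphate from 40 μM to 10 mM in HEPES/KCl/Mg(OAc)2 buffer. Signals were normalised to baseline and to non-cleaving reference variants before per-tile medians were fit to one- or two-exponential decays to yield kobs. Weighted Michaelis–Menten fits across concentrations gave kcat and KM.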
row,Variant,self-cleavage kobs at 640 uM GlcN6P [s⁻¹]
1,C34A C61U U65C U69G,< 1e-05
2,A14U C16A G29A,8.7e-05 ± 2.4e-05
3,G9C A12C C19A G51U U54G G63C C70G,< 1e-05
4,A12U G32U G41A U56A A64U U65A,< 1e-05
5,G51C A64C,< 1e-05
6,A6U G44U G51U U54A,< 1e-05
7,A36G G66U,< 1e-05
8,C50G C67G C70U C71A,0.000149 ± 4.5e-05
9,A15G A48G,4.16e-05 ± 1.4e-05
10,A33C A52G C67U,< 1e-05
11,U31C G35C C50U,< 1e-05
12,G7A A15U A33G A36U G38U U57C,< 1e-05
13,A64U C67U C71U,< 1e-05
14,C16U A53U U54G C58A,3.02e-05 ± 1.5e-05
15,G35A U55G G63A A64G,< 1e-05
16,C8G A12G U49C,< 1e-05
17,G38A U57A,< 1e-05
18,C16U U30A G44C G63C,< 1e-05
19,G40U C50G,< 1e-05
20,A42U G44C C68U,< 1e-05

row,Variant,self-cleavage kobs at 640 uM GlcN6P [s⁻¹]
1,G35U A39G G43A,< 1e-05
2,A15G C16U C67U,0.000521 ± 0.00014
3,G7U A36C A42C G66C,< 1e-05
4,U49C U55C,< 1e-05
5,C10U A53U C67A C68G,4.13e-05 ± 1.9e-05
6,U49G G62C,< 1e-05
7,C8A G43C C61A,< 1e-05
8,C11A A14G G41U G51C,< 1e-05
9,A14G G35A U45G G66U,< 1e-05
10,C16A G51U C67G,0.000109 ± 4.2e-05
11,G13C C34G G35C A52C,< 1e-05
12,G13C U31A G38U A39U G40C,< 1e-05
13,G9A G37C U54G G60U C68U,< 1e-05
14,A12C A48C G60C G62C C68A,< 1e-05
15,A36U A53U U65A,< 1e-05
16,C10U A33C U46C G51C G60C,< 1e-05
17,G35U A42G U55A,< 1e-05
18,U30G A53G C67U,0.000643 ± 0.00013
19,A33C G44U C71A,< 1e-05
20,A15G U56A C61G,< 1e-05

row,Variant,self-cleavage kobs at 640 uM GlcN6P [s⁻¹]
1,G13U G43C C67U,< 1e-05
2,G37A A42G C71G,8.96e-05 ± 2.4e-05
3,G35A A53G G60C,< 1e-05
4,C34G G40U U46A,< 1e-05
5,G29A G32U U56A,8.76e-05 ± 2.8e-05
6,U30A A48C C58A G60A,< 1e-05
7,A14C A33C A53U U55A G60U,< 1e-05
8,A52C G59A U69G,< 1e-05
9,G37U A39U G40U A48U C50G C67A,< 1e-05
10,C11G C16G G38A G63A,< 1e-05
11,U30C A36C A39U G43A G44U,< 1e-05
12,C10G A14U,< 1e-05
13,A6C G38A C50G C67U,0.000113 ± 4.8e-05
14,G44C A48U C50A,< 1e-05
15,A14G C16A G62C,< 1e-05
16,A15G C34A C71U,< 1e-05
17,U46A U56C C68A,< 1e-05
18,A33U U49A G51C,< 1e-05

# Variants of: B1
# Assay: self-cleavage kobs at 2500 uM GlcN6P; higher = faster cleavage; RNA array
# Settings: with glucosamine-6-phosphate
# Outline: as §1
row,Variant,self-cleavage kobs at 2500 uM GlcN6P [s⁻¹]
1,C10U G51C C58G,< 1e-05
2,C8G A12U A39U,< 1e-05
3,A14U A33U A36C,< 1e-05
4,G9C A12C C19A G51U U54G G63C C70G,< 1e-05
5,A6U G44U G63C,< 1e-05
6,A33G G35A A36C G41A C61G C68G,< 1e-05
7,C10U A33U G40C C50U,< 1e-05
8,C34G A39G G60U,< 1e-05
9,G40U U54G C68U,0.000121 ± 4.4e-05
10,A36G U45G C67A,< 1e-05
11,A12U G32U G41A U56A A64U U65A,< 1e-05
12,A14G A42G A52U,9.16e-05 ± 3.3e-05
13,A52C U57C G66U,< 1e-05
14,C8G A12U C16U G43U,< 1e-05
15,A6C C34U C50G,0.000502 ± 0.00022
16,C8G A12G U54G A64C U65A C71G,< 1e-05
17,A39G A64G U69A,0.00038 ± 0.00012
18,C11A G51C G63U,< 1e-05
19,U57C C58A C67G,0.000113 ± 5.6e-05
20,A6U G44U G51U U54A,< 1e-05
21,A36G G66U,< 1e-05
22,A6U A14C G35A,< 1e-05
23,C50G C67G C70U C71A,0.000157 ± 2.9e-05
24,C8U G13U G59U,< 1e-05

row,Variant,self-cleavage kobs at 2500 uM GlcN6P [s⁻¹]
1,C10A C34G C68G,< 1e-05
2,C10U A12C C70A,< 1e-05
3,A15G A48G,0.000216 ± 4e-05
4,A33C A52G C67U,< 1e-05
5,U30A G38A A39G C58A G63C C71A,< 1e-05
6,U31C G35C C50U,< 1e-05
7,G7A C10G G37U,< 1e-05
8,A33U A52C G63C,< 1e-05
9,G7A A15U A33G A36U G38U U57C,< 1e-05
10,A6U G9C A33C C50G A52C U56C C68A C71U,< 1e-05
11,A15U G29A G62A,< 1e-05
12,C34A G43A A64G,< 1e-05
13,G41C A48U A52C A53U,< 1e-05
14,C50U A52C C58U,< 1e-05
15,A36G G60U G63A C68A,< 1e-05
16,A14C A48G C70U,5.88e-05 ± 2.6e-05
17,A14G G29A C70G,0.000126 ± 4e-05
18,C16U A53U U54G C58A,3.59e-05 ± 1.1e-05
19,G60U C67A U69A,< 1e-05
20,C8U A33C U45A A52U,< 1e-05
21,C10U A42C G43U C67A,< 1e-05
22,A15G C34G A42U C67G,< 1e-05
23,G40U C50G,< 1e-05
24,A42U G44C C68U,< 1e-05

row,Variant,self-cleavage kobs at 2500 uM GlcN6P [s⁻¹]
1,A6U G32C C34G U55G U56A,< 1e-05
2,G7U G32U U54C C68G,< 1e-05
3,G13U U47G C67A,7.8e-05 ± 1.6e-05
4,C16U G41C G44C G59C,< 1e-05
5,G35U A39G G43A,< 1e-05
6,G26U G32U U55G,0.000168 ± 8.2e-05
7,A33U U46G A48G A64C C70U,< 1e-05
8,G29U G38U G66U C68A U69G,0.000147 ± 5.8e-05
9,U49C U55C,< 1e-05
10,G7A A33U C61G C70G,< 1e-05
11,G38C C58U G66A,< 1e-05
12,A15U U54C U65A,0.000123 ± 2.8e-05
13,U30A G32C,6.18e-05 ± 2.8e-05
14,C11U G44U U69G,< 1e-05
15,A33G A42G A52G G60C,< 1e-05
16,G32U A42G U55C U56C C58G,5.49e-05 ± 1.3e-05
17,A12G A48G U55C U57G,< 1e-05
18,C11A A14G G41U G51C,< 1e-05
19,C8A G9U A15C U31A G32A C70A,< 1e-05
20,A14G G35A U45G G66U,< 1e-05
21,G7U G44U A53U,< 1e-05
22,G7A A42U,< 1e-05
23,G13C C34G G35C A52C,< 1e-05
24,G9A G37C U54G G60U C68U,< 1e-05

row,Variant,self-cleavage kobs at 2500 uM GlcN6P [s⁻¹]
1,G35C G40U G51A U65G,< 1e-05
2,A6U A14U G29A C34G G63A,< 1e-05
3,U31C U55A G63C U69G,0.000106 ± 3.8e-05
4,G9U G32U G38U A42U,< 1e-05
5,A36U A53U U65A,< 1e-05
6,C10U A33C U46C G51C G60C,< 1e-05
7,G9A U56G G60A,< 1e-05
8,U30G A53G C67U,0.00132 ± 0.00032
9,A33C G44U C71A,< 1e-05
10,G35U A42U A64U,< 1e-05
11,A6G C34A C50U U69A,< 1e-05
12,A14G C58U G66U C67G,7.46e-05 ± 3.2e-05
13,U31A C34G A48G,< 1e-05
14,A14G U30C A39C U54A,0.000132 ± 2.6e-05
15,G13U G43C C67U,< 1e-05
16,A33G A36U U65G,< 1e-05
17,G37A A42G C71G,5.5e-05 ± 1.6e-05
18,A14U G43C U45G,0.000172 ± 4.1e-05
19,G35A A53G G60C,< 1e-05
20,G32A C50G C71U,0.000168 ± 7.3e-05
21,G32C U54C,1.41e-05 ± 5.6e-06
22,C11U U47C G62A,< 1e-05
23,G40A G41C A42C U49C,< 1e-05
24,G29A G32U U56A,0.000464 ± 0.00011

row,Variant,self-cleavage kobs at 2500 uM GlcN6P [s⁻¹]
1,A48G U54G C70U,0.000276 ± 7.7e-05
2,A15G U45G U46C,0.00283 ± 0.001
3,A14C A33C A53U U55A G60U,< 1e-05
4,C8U C10A A39C,< 1e-05
5,G37U A39U G40U A48U C50G C67A,< 1e-05
6,A14C U45G C68U,3.4e-05 ± 1.6e-05
7,G38C U57G G59A A64G,< 1e-05
8,A39G U57A,0.000309 ± 7e-05
9,A6C G38A C50G C67U,7.23e-05 ± 1.8e-05
10,G38U C67G C68U,0.000248 ± 8.4e-05
11,A48U G60C G63C C71U,< 1e-05
12,U30A G32C C34G U55A,< 1e-05
13,A39G A42U U55G U57C G62A,< 1e-05
14,A15G C34A C71U,< 1e-05
15,U46A U56C C68A,< 1e-05
16,G44U A52G C67U U69G,< 1e-05
17,G32C C50G C67G,4.82e-05 ± 1.8e-05
18,A53U C58G C61G C71G,0.000415 ± 0.00016
19,G26U A36C,< 1e-05
20,G7C G29A A36U C71A,< 1e-05

# Variants of: B1
# Assay: self-cleavage kobs at 10000 uM GlcN6P; higher = faster cleavage; RNA array
# Settings: with glucosamine-6-phosphate
# Outline: as §1
row,Variant,self-cleavage kobs at 10000 uM GlcN6P [s⁻¹]
1,G51C A64C,< 1e-05
2,A36G G66U,< 1e-05
3,A15G A48G,8.59e-05 ± 1.3e-05
4,U30A G38A A39G C58A G63C C71A,< 1e-05
5,A6U G9C A33C C50G A52C U56C C68A C71U,< 1e-05
6,A15U G29A G62A,< 1e-05
7,C16U A53U U54G C58A,0.000172 ± 2e-05
8,C10U A42C G43U C67A,< 1e-05
9,G38A U57A,< 1e-05
10,C16U U30A G44C G63C,< 1e-05
11,G40U C50G,< 1e-05
12,G7U G32U U54C C68G,< 1e-05
13,A15U U54C U65A,0.000335 ± 3.8e-05
14,U30A G32C,0.000203 ± 5.8e-05
15,G7A A42U,< 1e-05
16,A14G U30C A39C U54A,0.000156 ± 2.5e-05
17,G13U G43C C67U,< 1e-05
18,G37A A42G C71G,8.16e-05 ± 2.3e-05
19,A14U G43C U45G,0.000252 ± 6.9e-05
20,G32C U54C,8.23e-05 ± 1.2e-05
21,C10G A14U,< 1e-05
22,A39G U57A,0.000335 ± 6.1e-05
23,A6C G38A C50G C67U,4.13e-05 ± 1.3e-05
